Positions count from the first letter of the chain named.
T1: biotinylated recombinant human IL-12Rβ2 (human, UniProt Q99665 24-622, random biotinylated)
T1 construct: Recombinant protein produced in-house; also called hIL-12RB2; human IL-12RB2
T1 sequence: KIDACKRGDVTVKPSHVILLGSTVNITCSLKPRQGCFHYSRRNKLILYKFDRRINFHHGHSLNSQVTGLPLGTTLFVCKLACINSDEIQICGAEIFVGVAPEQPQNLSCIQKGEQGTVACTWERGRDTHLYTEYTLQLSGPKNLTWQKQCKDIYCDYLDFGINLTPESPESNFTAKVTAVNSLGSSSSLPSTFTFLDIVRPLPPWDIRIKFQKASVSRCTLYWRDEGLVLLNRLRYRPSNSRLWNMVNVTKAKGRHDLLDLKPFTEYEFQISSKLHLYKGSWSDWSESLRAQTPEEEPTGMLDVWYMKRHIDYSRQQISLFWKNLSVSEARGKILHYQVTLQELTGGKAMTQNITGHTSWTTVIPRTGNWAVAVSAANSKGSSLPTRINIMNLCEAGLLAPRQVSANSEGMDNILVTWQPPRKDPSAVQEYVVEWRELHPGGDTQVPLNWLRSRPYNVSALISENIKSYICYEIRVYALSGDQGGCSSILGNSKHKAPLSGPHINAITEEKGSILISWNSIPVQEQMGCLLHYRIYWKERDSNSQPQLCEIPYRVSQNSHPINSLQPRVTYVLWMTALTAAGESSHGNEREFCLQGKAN

T2: biotinylated recombinant mouse IL-12Rβ2 (mouse, UniProt P97378 24-637, random biotinylated)
T2 construct: Recombinant protein produced in-house; also called mIL-12RB2; mouse IL-12RB2
T2 sequence: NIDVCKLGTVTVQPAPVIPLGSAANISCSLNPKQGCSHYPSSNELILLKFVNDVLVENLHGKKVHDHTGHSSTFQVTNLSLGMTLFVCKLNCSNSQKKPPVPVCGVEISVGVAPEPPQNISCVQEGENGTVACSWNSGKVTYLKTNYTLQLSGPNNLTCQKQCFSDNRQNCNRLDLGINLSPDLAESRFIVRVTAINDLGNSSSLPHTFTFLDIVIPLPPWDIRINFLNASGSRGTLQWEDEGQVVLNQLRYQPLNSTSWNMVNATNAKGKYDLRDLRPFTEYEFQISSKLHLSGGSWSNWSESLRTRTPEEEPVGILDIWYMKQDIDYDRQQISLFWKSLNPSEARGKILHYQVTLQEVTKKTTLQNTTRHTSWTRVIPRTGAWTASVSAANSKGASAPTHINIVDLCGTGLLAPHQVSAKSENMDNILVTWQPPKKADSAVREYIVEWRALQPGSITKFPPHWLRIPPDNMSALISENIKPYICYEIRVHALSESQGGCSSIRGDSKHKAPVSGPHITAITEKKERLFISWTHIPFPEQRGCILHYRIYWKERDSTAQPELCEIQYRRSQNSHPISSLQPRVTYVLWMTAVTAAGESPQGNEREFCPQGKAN

B1: anti-IL-12Rβ2 VHH clone 2CRH33 (clone ID 20363) (VHH, not shown: small tags and cut ends)
VHH: QVQLQESGGGSVQPGWSLRLTCAASGFTFSTSGMHWFRQAPGKGLEWVSSISSGGGDTYYTDSVKGRITISRDNAKNTLYLQLNDLKSEDTAVYYCSKDPSGATRGQGTQVTVSS
notes: periplasmic extract
B2: anti-IL-12Rβ2 VHH clone 2CRH60 (clone ID 20367) (VHH, not shown: small tags and cut ends)
VHH: B1 VHH with W16G
notes: periplasmic extract
B3: anti-IL-12Rβ2 VHH clone 3CAHS39 (clone ID 20393) (VHH, not shown: small tags and cut ends)
VHH: QVQLQESGGGLVQAGGSLRLSCAASGRTINAYIMGWFRQAPGKEREFVAAVSGSGGSTYYADSVKGRFTISRDNAKNTVNLQMDNLRSEDTDVYYCAATYESVYLQNPGQYDYWGQGTQVTVSS
notes: periplasmic extract
B4: anti-IL-12Rβ2 VHH clone 3CAHS43 (clone ID 20395) (VHH, not shown: small tags and cut ends)
VHH: B3 VHH with L11S, Q106R
notes: periplasmic extract
B5: anti-IL-12Rβ2 VHH clone 3CAHS52 (clone ID 20396) (VHH, not shown: small tags and cut ends)
VHH: B3 VHH with L11S
notes: periplasmic extract
B6: anti-IL-12Rβ2 VHH clone 3CAHS53 (clone ID 20397) (VHH, not shown: small tags and cut ends)
VHH: B3 VHH with Q13E, A14P, N74S
notes: periplasmic extract
B7: anti-IL-12Rβ2 VHH clone 3CRHS1 (clone ID 20412) (VHH, not shown: small tags and cut ends)
VHH: QVQLQESGGGSVQPGGSLRLSCAASGFTFSTSGMHWFRQAPGKGLEWVSSIGIIVDSSYYASSVKGRFTISRDNAKNTLYLQMNSLKSEDTAVYYCSKDPTGSSRGQGTQVTVSS
notes: periplasmic extract
B8: anti-IL-12Rβ2 VHH clone 3CRHS128 (clone ID 20432) (VHH, not shown: small tags and cut ends)
VHH: B7 VHH with S11L, I53A, I54T, S57N, Q82L
notes: periplasmic extract
B9: anti-IL-12Rβ2 VHH clone 2CRH80 (clone ID 20371) (VHH, not shown: small tags and cut ends)
VHH: B7 VHH with S11L, D56G, Q82H, P100V
notes: periplasmic extract
B10: anti-IL-12Rβ2 VHH clone 3CRHS109 (clone ID 20430) (VHH, not shown: small tags and cut ends)
VHH: B7 VHH with S11L, Q82H, P100V
notes: periplasmic extract
B11: anti-IL-12Rβ2 VHH clone 3CRH14 (clone ID 20374) (VHH, not shown: small tags and cut ends)
VHH: B7 VHH with S11L, S62D, Y80F
notes: periplasmic extract
B12: anti-IL-12Rβ2 VHH clone 3CRH45 (clone ID 20383) (VHH, not shown: small tags and cut ends)
VHH: B7 VHH with S11L, S32F, V55D, S57N, P100T
notes: periplasmic extract
B13: anti-IL-12Rβ2 VHH clone 3CRH43 (clone ID 20382) (VHH, not shown: small tags and cut ends)
VHH: B7 VHH with T78I, L79V
notes: periplasmic extract
B14: anti-IL-12Rβ2 VHH clone 2CRH10 (clone ID 20362) (VHH, not shown: small tags and cut ends)
VHH: QVQLQESGGGLVQAGGSLVLSCAASGSAALIFLMSWYRQAPGKQRELVAEVSRGGSTTYADSVEGRFHISRDNAKNIVDLQMNSLKPEDTAVYYCKADQNYGDSLRSSWGRGTQVTVSS
notes: periplasmic extract
B15: anti-IL-12Rβ2 VHH clone 3CRH38 (clone ID 20381) (VHH, not shown: small tags and cut ends)
VHH: B14 VHH with H68T
notes: periplasmic extract
B16: anti-IL-12Rβ2 VHH clone 2CRH53 (clone ID 20366) (VHH, not shown: small tags and cut ends)
VHH: B14 VHH with G54Y, H68T, N76D, N100Y
notes: periplasmic extract
B17: anti-IL-12Rβ2 VHH clone 3CRH5 (clone ID 20373) (VHH, not shown: small tags and cut ends)
VHH: B14 VHH with H68T, R111Q
notes: periplasmic extract
B18: anti-IL-12Rβ2 VHH clone 3CRHS2 (clone ID 20413) (VHH, not shown: small tags and cut ends)
VHH: B14 VHH with A14L, V19T, G54Y, H68T, N100Y
notes: periplasmic extract
B19: anti-IL-12Rβ2 VHH clone 2CRH73 (clone ID 20369) (VHH, not shown: small tags and cut ends)
VHH: B14 VHH with V19R, S21T, A23T, G54R, H68T, N100Y
notes: periplasmic extract
B20: anti-IL-12Rβ2 VHH clone 3CRHS184 (clone ID 20441) (VHH, not shown: small tags and cut ends)
VHH: B14 VHH with G54Y, H68T, N100Y, V115L
notes: periplasmic extract
B21: anti-IL-12Rβ2 VHH clone 3CRHS9 (clone ID 20415) (VHH, not shown: small tags and cut ends)
VHH: QVQLQESGGGLVQPGGSLRLSCTASGSIVSIYNMDWYRQAPGNEREWVASITSSGDPYYDGSAKGRFTISRDNAKMTVYLQMNSLKPEDTAVYYCKVPTEKGNYWGQGTQVTVSS
notes: periplasmic extract
B22: anti-IL-12Rβ2 VHH clone 3CRHS148 (clone ID 20436) (VHH, not shown: small tags and cut ends)
VHH: B21 VHH with T23I, V29F, E44Q, S53P, G61D
notes: periplasmic extract
B23: anti-IL-12Rβ2 VHH clone 3CRH27 (clone ID 20379) (VHH, not shown: small tags and cut ends)
VHH: B21 VHH with P14A
notes: periplasmic extract
B24: anti-IL-12Rβ2 VHH clone 3CRHS3 (clone ID 20414) (VHH, not shown: small tags and cut ends)
VHH: B21 VHH with V29F, E44Q, G61A, A63V, N73S, V97L
notes: periplasmic extract
B25: anti-IL-12Rβ2 VHH clone 3CRH68 (clone ID 20388) (VHH, not shown: small tags and cut ends)
VHH: B21 VHH with V29L, A40V, E44Q, S53P, A63V, T77M
notes: periplasmic extract
B26: anti-IL-12Rβ2 VHH clone 3CRHS54 (clone ID 20422) (VHH, not shown: small tags and cut ends)
VHH: B21 VHH with K86E, Y94F
notes: periplasmic extract
B27: anti-IL-12Rβ2 VHH clone 3CRHS100 (clone ID 20428) (VHH, not shown: small tags and cut ends)
VHH: B21 VHH with V29F, E44Q, S53P, G61D
notes: periplasmic extract
B28: anti-IL-12Rβ2 VHH clone 3CRH18 (clone ID 20377) (VHH, not shown: small tags and cut ends)
VHH: B21 VHH with S27N, E44Q, K86R
notes: periplasmic extract
B29: anti-IL-12Rβ2 VHH clone 3CRHS55 (clone ID 20423) (VHH, not shown: small tags and cut ends)
VHH: B21 VHH with P14A, R19N, V29I, E44Q, S54N, P57S, K101N
notes: periplasmic extract

What follows are binders tested against T1, biotinylated recombinant human IL-12Rβ2 (assay: BLI, P.E., off-rate ranking).

Response	koff [s⁻¹]	Binder
0.621	0.00491	B1
0.661	0.00533	B2
0.612	0.00508	B3
0.605	0.00485	B4
0.508	0.00422	B5
0.47	0.00479	B6
0.3	0.00283	B7
0.294	0.00274	B8
0.53	0.00353	B9
0.745	0.0374	B10
0.438	0.00328	B11
0.427	0.00361	B12
0.296	0.00243	B13
0.496	0.00524	B14
0.475	0.00413	B15
0.652	0.00598	B16
0.491	0.00337	B17
0.5	0.00404	B18
0.547	0.00536	B19
0.515	0.00385	B20
0.222	0.0034	B21
0.0184		B22
0.138	0.00264	B23
0.327	0.00225	B24
0.426	0.00444	B25
0.203	0.00272	B26
0.209	0.00322	B27
-0.19		B28
0.204	0.00296	B29

Each binder was assayed against T1, biotinylated recombinant human IL-12Rβ2 (assay: ELISA, P.E., biotinylated antigen).

ELISA hIL-12RB2/control	Binder
6.44	B1
5.31	B2
4.73	B3
8.23	B4
10	B5
6.58	B6
6.74	B7
3.65	B8
5.01	B9
3.18	B10
5.51	B11
4.58	B12
4.75	B13
6.22	B14
11.8	B15
5.51	B16
8.64	B17
5.59	B18
4.37	B19
4.17	B20
5.08	B21
3.36	B22
10.2	B23
6.39	B24
4.66	B25
7.85	B26
5.88	B27
5.84	B28
3.76	B29

Each binder was assayed against T2, biotinylated recombinant mouse IL-12Rβ2 (assay: ELISA, P.E., biotinylated antigen).

ELISA mIL-12RB2/control	Binder
0.971	B1
0.866	B2
1.14	B3
1.31	B4
1.22	B5
1.1	B6
1.01	B7
0.984	B8
1.23	B9
1.07	B10
1.19	B11
1.39	B12
0.828	B13
0.886	B14
1.85	B15
0.967	B16
0.808	B17
1.01	B18
0.606	B19
1.06	B20
1.09	B21
0.74	B22
1.44	B23
1.05	B24
1.03	B25
1.26	B26
1.05	B27
1.8	B28
1.11	B29
